Data taken from patent publication US20160237153A1 (DUKE UNIVERSITY, published 2016).

Assays:
[1] = target: T1, human NaV1.7 expressed in HEK293 cells (human, UniProt Q15858 1-1988); experiment: apparent KD from whole-cell voltage clamp of hNaV1.7 in HEK293 cells at 10 Hz; fraction bound Y=1-I/I0 fitted to a one-site binding equation; apparent KD from inhibition of peak sodium current (Y=1-I/IO), one-site fit, n=10
T1 construct: Transiently transfected HEK293 cells, whole-cell patch clamp; also called hNaV1.7

[2] = target: T2, human NaV1.4 expressed in HEK293 cells (human, UniProt P35499 1-1836); experiment: cell-based or functional assay
[3] = target: T3, human NaV1.3 expressed in HEK293 cells (human, UniProt Q9NY46 1-2000); experiment: cell-based or functional assay
[4] = target: T4, mouse NaV1.5 expressed in HEK293 cells (mouse, UniProt Q9JJV9 1-2019); experiment: cell-based or functional assay
[5] = target: T5, rat NaV1.8 expressed in HEK293 cells (rat, UniProt Q62968 1-1956); experiment: cell-based or functional assay
[6] = target: T1, human NaV1.7 expressed in HEK293 cells; experiment: cell-based or functional assay
[7] = target: T6, mouse NaV1.6 expressed in HEK293 cells (mouse, UniProt Q9WTU3 1-1978); experiment: cell-based or functional assay
[8] = target: T7, human NaV1.1 expressed in HEK293 cells (human, UniProt P35498 1-2009); experiment: cell-based or functional assay
[9] = target: T8, rat NaV1.2 expressed in HEK293 cells (rat, UniProt P04775 1-2005); experiment: cell-based or functional assay
[10] = target: T2, human NaV1.4 expressed in HEK293 cells; experiment: cell-based or functional assay; remark: listed apart in the source
[11] = target: T3, human NaV1.3 expressed in HEK293 cells; experiment: cell-based or functional assay; remark: listed apart in the source
[12] = target: T4, mouse NaV1.5 expressed in HEK293 cells; experiment: cell-based or functional assay; remark: listed apart in the source
[13] = target: T5, rat NaV1.8 expressed in HEK293 cells; experiment: cell-based or functional assay; remark: listed apart in the source
[14] = target: T1, human NaV1.7 expressed in HEK293 cells; experiment: cell-based or functional assay; remark: listed apart in the source
[15] = target: T6, mouse NaV1.6 expressed in HEK293 cells; experiment: cell-based or functional assay; remark: listed apart in the source
[16] = target: T7, human NaV1.1 expressed in HEK293 cells; experiment: cell-based or functional assay; remark: listed apart in the source
[17] = target: T8, rat NaV1.2 expressed in HEK293 cells; experiment: cell-based or functional assay; remark: listed apart in the source
[18] = target: T1, human NaV1.7 expressed in HEK293 cells; experiment: fraction bound = 1 - I/I0 from whole-cell voltage clamp of hNaV1.7 in HEK293 cells, 30 ms pulses to -10 mV from -120 mV at 10 Hz; mean±S.E.M., n=10

T6 sequence (Q9WTU3 whole entry): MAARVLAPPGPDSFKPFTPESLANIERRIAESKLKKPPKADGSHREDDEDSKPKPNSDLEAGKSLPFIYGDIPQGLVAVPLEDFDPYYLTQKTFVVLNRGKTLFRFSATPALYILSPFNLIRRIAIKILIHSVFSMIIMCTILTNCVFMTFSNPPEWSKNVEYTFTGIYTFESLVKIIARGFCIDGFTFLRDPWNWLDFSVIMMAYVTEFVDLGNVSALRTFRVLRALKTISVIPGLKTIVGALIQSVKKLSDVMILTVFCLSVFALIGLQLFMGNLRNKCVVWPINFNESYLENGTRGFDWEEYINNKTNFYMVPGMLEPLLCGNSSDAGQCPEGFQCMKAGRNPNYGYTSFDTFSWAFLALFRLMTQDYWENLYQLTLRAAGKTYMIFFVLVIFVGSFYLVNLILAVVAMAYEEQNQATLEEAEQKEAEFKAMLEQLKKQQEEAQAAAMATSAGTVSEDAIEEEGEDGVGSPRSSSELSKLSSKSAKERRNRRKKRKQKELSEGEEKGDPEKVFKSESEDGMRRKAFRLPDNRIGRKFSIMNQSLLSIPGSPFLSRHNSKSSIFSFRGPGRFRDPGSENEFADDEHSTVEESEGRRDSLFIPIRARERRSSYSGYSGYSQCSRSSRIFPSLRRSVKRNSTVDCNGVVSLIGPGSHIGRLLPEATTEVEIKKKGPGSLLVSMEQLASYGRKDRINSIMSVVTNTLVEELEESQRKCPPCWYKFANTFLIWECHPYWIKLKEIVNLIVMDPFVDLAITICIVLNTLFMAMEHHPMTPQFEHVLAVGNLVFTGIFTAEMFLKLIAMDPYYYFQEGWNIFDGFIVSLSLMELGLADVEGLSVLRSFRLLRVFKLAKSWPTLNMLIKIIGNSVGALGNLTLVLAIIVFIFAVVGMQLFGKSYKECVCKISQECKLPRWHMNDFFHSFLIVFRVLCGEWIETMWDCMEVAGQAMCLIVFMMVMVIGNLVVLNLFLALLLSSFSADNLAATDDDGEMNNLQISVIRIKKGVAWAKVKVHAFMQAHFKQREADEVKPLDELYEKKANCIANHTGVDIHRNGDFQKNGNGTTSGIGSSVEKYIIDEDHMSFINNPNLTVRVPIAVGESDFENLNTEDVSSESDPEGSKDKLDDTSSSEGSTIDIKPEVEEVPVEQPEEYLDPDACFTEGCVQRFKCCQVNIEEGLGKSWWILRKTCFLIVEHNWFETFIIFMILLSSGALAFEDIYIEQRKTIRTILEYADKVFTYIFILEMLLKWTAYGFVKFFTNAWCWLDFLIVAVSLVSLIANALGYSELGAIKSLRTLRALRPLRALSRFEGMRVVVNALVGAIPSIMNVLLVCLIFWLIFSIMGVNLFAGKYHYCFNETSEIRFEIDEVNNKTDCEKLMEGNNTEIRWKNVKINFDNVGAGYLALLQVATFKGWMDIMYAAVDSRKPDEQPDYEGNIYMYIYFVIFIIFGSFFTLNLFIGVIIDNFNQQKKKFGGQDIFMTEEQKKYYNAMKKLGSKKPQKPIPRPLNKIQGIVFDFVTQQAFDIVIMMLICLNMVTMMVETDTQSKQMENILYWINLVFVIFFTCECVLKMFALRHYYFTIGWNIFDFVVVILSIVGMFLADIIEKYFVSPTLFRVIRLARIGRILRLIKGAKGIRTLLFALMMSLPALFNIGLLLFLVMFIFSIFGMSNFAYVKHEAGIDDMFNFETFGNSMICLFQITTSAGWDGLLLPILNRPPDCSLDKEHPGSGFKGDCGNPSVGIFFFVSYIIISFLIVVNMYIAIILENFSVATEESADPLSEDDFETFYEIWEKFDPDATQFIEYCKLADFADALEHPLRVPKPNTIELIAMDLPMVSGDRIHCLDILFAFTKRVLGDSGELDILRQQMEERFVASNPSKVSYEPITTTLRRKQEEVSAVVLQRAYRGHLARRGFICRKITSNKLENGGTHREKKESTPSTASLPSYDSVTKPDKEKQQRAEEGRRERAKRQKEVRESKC
T2 sequence (P35499 whole entry): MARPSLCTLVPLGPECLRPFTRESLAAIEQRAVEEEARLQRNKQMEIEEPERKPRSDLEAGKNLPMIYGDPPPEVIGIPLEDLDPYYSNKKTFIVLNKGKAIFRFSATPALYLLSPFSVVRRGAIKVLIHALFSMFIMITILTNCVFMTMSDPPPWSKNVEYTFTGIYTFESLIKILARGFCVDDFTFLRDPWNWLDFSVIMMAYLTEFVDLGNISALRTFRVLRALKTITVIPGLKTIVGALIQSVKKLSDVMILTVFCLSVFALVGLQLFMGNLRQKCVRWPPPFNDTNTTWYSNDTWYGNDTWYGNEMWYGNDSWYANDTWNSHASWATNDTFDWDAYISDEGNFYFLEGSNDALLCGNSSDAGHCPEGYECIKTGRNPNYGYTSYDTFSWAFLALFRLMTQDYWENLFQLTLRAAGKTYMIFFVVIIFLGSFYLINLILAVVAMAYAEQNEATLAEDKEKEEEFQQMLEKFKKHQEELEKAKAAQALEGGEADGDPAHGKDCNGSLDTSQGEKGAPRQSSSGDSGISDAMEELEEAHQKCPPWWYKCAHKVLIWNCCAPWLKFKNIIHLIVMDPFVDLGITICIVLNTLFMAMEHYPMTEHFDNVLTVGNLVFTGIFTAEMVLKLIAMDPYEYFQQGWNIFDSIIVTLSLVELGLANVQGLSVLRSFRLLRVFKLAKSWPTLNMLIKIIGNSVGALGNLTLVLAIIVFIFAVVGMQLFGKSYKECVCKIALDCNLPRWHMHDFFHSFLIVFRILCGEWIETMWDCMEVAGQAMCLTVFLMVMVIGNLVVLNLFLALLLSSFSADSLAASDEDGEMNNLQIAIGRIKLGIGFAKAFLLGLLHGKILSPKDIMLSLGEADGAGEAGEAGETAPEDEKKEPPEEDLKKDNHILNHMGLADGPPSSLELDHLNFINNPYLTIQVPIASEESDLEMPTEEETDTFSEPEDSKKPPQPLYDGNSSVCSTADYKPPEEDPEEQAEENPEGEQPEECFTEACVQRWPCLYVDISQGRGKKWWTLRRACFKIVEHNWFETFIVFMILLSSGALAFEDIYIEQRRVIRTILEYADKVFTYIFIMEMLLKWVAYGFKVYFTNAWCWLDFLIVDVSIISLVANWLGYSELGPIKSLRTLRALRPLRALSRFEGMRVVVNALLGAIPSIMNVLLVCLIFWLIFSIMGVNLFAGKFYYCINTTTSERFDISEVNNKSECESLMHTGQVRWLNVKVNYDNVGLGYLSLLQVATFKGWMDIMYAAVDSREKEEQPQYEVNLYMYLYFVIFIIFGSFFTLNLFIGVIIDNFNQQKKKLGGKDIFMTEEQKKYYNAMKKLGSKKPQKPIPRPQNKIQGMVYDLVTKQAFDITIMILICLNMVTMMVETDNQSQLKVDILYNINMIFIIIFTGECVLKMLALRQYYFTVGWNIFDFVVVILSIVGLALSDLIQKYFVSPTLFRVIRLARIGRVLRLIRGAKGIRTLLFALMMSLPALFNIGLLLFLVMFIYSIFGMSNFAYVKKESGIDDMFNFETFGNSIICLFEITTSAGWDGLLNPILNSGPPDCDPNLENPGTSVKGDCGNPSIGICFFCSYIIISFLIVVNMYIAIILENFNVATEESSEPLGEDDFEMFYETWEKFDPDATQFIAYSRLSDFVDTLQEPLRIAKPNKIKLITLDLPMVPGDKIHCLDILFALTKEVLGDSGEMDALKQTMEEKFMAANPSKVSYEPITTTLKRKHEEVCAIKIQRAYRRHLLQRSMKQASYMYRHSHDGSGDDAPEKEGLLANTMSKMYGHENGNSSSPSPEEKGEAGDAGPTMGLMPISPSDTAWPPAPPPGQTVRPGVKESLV

B1: 1E16 monoclonal antibody (antibody, IgG1, V domains shown)
VH: QGQMQQSGAELVKPGASVKLSCKTSGFTFSSSYISWLKQKPGQSLEWIAWIYAGTGGTSYNQKFTGKAQLTVDTSSSTAYMQFSSLTTEDSAIYYCARQDGNYRYWYFDVWGAGTTVTVSS
VL: ETTVTQSPASLSMAIGEKVTIRCITSTDIDDDMNWYQQKPGEPPKLLISEGNTLRPGVPSRFSSSGYGTDFVFTIENMLSEDVADYYCLQSDNLPLTFGGGTKLEIK
notes: also called 1E16 mAb; 1E16 Ab
Kd [1]: 0.0229 µM | IC50 (µM), sodium current at 2 Hz [2]: 7.9 µM | Maximum inhibition (%) [2]: 21.5% | Selectivity for Nav1.7 [2]: 1040 fold | IC50 (µM), sodium current at 2 Hz [3]: 8.7 µM | Maximum inhibition (%) [3]: 16.2% | Selectivity for Nav1.7 [3]: 1520 fold | IC50 (µM), sodium current at 2 Hz [4]: 5.6 µM | Maximum inhibition (%) [4]: 19.1% | Selectivity for Nav1.7 [4]: 830 fold | IC50 (µM), sodium current at 2 Hz [5]: 5.2 µM | Maximum inhibition (%) [5]: 22.1% | Selectivity for Nav1.7 [5]: 666 fold | IC50 (µM), sodium current at 2 Hz [6]: 0.0307 µM | Maximum inhibition (%) [6]: 86.9% | Selectivity for Nav1.7 [6]: 1 fold | IC50 (µM), sodium current at 2 Hz [7]: 6.3 µM | Maximum inhibition (%) [7]: 44.2% | Selectivity for Nav1.7 [7]: 404 fold | IC50 (µM), sodium current at 2 Hz [8]: 6.3 µM | Maximum inhibition (%) [8]: 20.7% | Selectivity for Nav1.7 [8]: 862 fold | IC50 (µM), sodium current at 2 Hz [9]: 9 µM | Maximum inhibition (%) [9]: 18.7% | Selectivity for Nav1.7 [9]: 1360 fold | IC50, sodium current at 2 Hz [10]: > 5 µM | IC50, sodium current at 2 Hz [11]: > 5 µM | IC50, sodium current at 2 Hz [12]: > 5 µM | IC50, sodium current at 2 Hz [13]: > 5 µM | IC50 of inhibition of human NaV1.7 currents at 0.1 Hz [14]: 0.107 µM | IC50 of inhibition of human NaV1.7 currents at 10 Hz [14]: 0.0167 µM | fold decrease in efficacy relative to NaV1.7 [15]: ~2 fold | fold decrease in potency relative to NaV1.7 [15]: ~200 fold | IC50, sodium current at 2 Hz [16]: > 5 µM | IC50, sodium current at 2 Hz [17]: > 5 µM | EC50 (read off the curve) [18]: ~0.02 µM
